Test [1] concerns the target NBD P9 PAI-1 (UniProt P05121).
For test [2], the target named is wild-type PAI-1 (human) (UniProt P05121).
Test [3] has the same target. This is another data set of the same source.
The target is the same in test [4]. This is another data set of the same source.

A value given as a limit tells only on which side of the number the result lay.

Turning to “two-chain tissue-type plasminogen activator (enzyme)”, in test [1], the Km ([PA] at half-saturation) of RCL insertion, no Nb, −Vn was determined as 0.22 µM; the Km of RCL insertion, with Nb42, −Vn came out at 1.2 µM; the Km of RCL insertion, with Nb42 and Nb64, −Vn was 1.4 µM; the Km of RCL insertion, with Nb64, −Vn stood at 0.17 µM. In test [1], the klim of RCL insertion (stopped-flow NBD fluorescence), no Nb, −Vn came to 1.5 s⁻¹; the klim of RCL insertion, with Nb42 and Nb64, −Vn turned out to be 5.2 s⁻¹; the klim of RCL insertion, with Nb64, −Vn came to 1.4 s⁻¹; the klim/Km of RCL insertion, with Nb42 and Nb64, +Vn ((μmol/ L)^−1 s^−1) was determined as 1.1. Moreover, in test [2], the SI by SDS-PAGE, with Nb42, +Vn was 1; the SI by SDS-PAGE, with Nb42, −Vn was 1.1; the SI by SDS-PAGE, with Nb42 and Nb64, +Vn is over 30; the SI by SDS-PAGE, with Nb42 and Nb64, −Vn amounted to 16.9. In addition, in test [2], the SI by SDS-PAGE, with Nb64, +Vn was over 30; the SI by SDS-PAGE, with Nb64, −Vn was 15.6; the stoichiometry of inhibition (SI) by SDS-PAGE, no Nb, −Vn is 1.1.

Regarding “two-chain urokinase-type plasminogen activator (enzyme)”, in test [3], the percent substrate reaction by SDS-PAGE, with Nb64, +Vn is 90% and the percent substrate reaction by SDS-PAGE, with Nb64, −Vn is 96%. In test [1], the klim/Km of RCL insertion, no Nb, −Vn ((μmol/ L)^−1 s^−1) turned out to be 11.3 and the klim/Km of RCL insertion, with Nb64, −Vn ((μmol/ L)^−1 s^−1) was 14.7. In test [2], this molecule had an SI by SDS-PAGE, no Nb, −Vn of 1.1; an SI by SDS-PAGE, with Nb42, +Vn of 1.1; an SI by SDS-PAGE, with Nb42, −Vn of 1.2; an SI by SDS-PAGE, with Nb42 and Nb64, −Vn of 12.4. Besides, in test [2], the SI by SDS-PAGE, with Nb64, +Vn was 10 and the SI by SDS-PAGE, with Nb64, −Vn is 27.

B1: VHH-2g-42 (VHH)
VHH: QVQLVESGGGLVQPGGRLRLSCAASGFTFRTYAMQWYRQSPGTERELVAAISNIGGVTDYGDSVKGRFTISRDNAKTTVYLEMNSLKPEDTATYYCSAVRLPQRYWGRGTQVTVSS
In turn, B1 came in with an IC50 of inhibition of PAI-1-wt activity, PAI-1/tPA, −Vn in test [4] of 87 nM.

B2: VHH-2w-64 (VHH)
VHH: QVQLVESGGGLVQAGGSLRLSCAASGFTFDDYSIAWFRQAPGKEREGVSCISSSDGSAYYADSVKGRFTISSDNAKNTVYLQMNSLKPEDTAVYYCAAVWARVCRNPYDYWGQGTQVTVSS
In test [4], B2 showed an IC50 of inhibition of PAI-1-wt activity, PAI-1/tPA, −Vn of 16 nM; an IC50 of inhibition of PAI-1-wt activity, PAI-1/uPA, −Vn of 4.6 nM; an IC50 of inhibition of the activity of Vn-bound PAI-1-wt, PAI-1/tPA of 2.8 nM; an IC50 of inhibition of the activity of Vn-bound PAI-1-wt, PAI-1/uPA of 2 nM. In test [4], this molecule yielded a maximum inhibition of PAI-1-wt activity, PAI-1/uPA, −Vn of 88% and a maximum inhibition of the activity of Vn-bound PAI-1-wt, PAI-1/tPA of 93%.
